Experimental data reported in the RNAGym collection of RNA variant scans (doi:10.1021/acssynbio.7b00057).

B1: Pistol ribozyme (parent)
chain: GGGUCGUUGUUCCAUAAUCGCGUGGAUAUGGCACGCAAGUUUCUACCGGGCACCGUAAAUGUCCGACUGGAGCCGUUCGGGCGGCUAUAAACAGACCUCAGGCCCGAAGCGUGGCGGCACCUGCCGCCGGUGGUAAAAAAGAUCGGAAGAGCACACGUCU

Variants of: B1
Assay: aptazyme ON/OFF ratio, guanine; higher = stronger switching; co-transcriptional cleavage with and without guanine

Row | Variant | aptazyme ON/OFF ratio
1 | GGGUCGAGGGUCGAUAAUCGCGUGGAUAUGGCACGCAAGUUUCUACCGGGCACCGUAAAUGUCCGACUGGAGCCGUUCGGGCGGCUAUAAACAGACCUCAGGCCCGAAGCGUGGCGGCACCUGCCGCCGGUGGUAAAAAAGAUCGGAAGAGCACACGUCU | 1.14
2 | GGGUCGAGGGUCUAUAAUCGCGUGGAUAUGGCACGCAAGUUUCUACCGGGCACCGUAAAUGUCCGACUGGAGCCGUUCGGGCGGCUAUAAACAGACCUCAGGCCCGAAGCGUGGCGGCACCUGCCGCCGGUGGUAAAAAAGAUCGGAAGAGCACACGUCU | 1.55
3 | GGGUCGAGGGUCAAUAAUCGCGUGGAUAUGGCACGCAAGUUUCUACCGGGCACCGUAAAUGUCCGACUGGAGCCGUUCGGGCGGCUAUAAACAGACCUCAGGCCCGAAGCGUGGCGGCACCUGCCGCCGGUGGUAAAAAAGAUCGGAAGAGCACACGUCU | 1.26
4 | GGGUCGAGGGAGGAUAAUCGCGUGGAUAUGGCACGCAAGUUUCUACCGGGCACCGUAAAUGUCCGACUGGAGCCGUUCGGGCGGCUAUAAACAGACCUCAGGCCCGAAGCGUGGCGGCACCUGCCGCCGGUGGUAAAAAAGAUCGGAAGAGCACACGUCU | 1.46
5 | GGGUCGAGGGAGUAUAAUCGCGUGGAUAUGGCACGCAAGUUUCUACCGGGCACCGUAAAUGUCCGACUGGAGCCGUUCGGGCGGCUAUAAACAGACCUCAGGCCCGAAGCGUGGCGGCACCUGCCGCCGGUGGUAAAAAAGAUCGGAAGAGCACACGUCU | 1.46
6 | GGGUCGAGGGAGAAUAAUCGCGUGGAUAUGGCACGCAAGUUUCUACCGGGCACCGUAAAUGUCCGACUGGAGCCGUUCGGGCGGCUAUAAACAGACCUCAGGCCCGAAGCGUGGCGGCACCUGCCGCCGGUGGUAAAAAAGAUCGGAAGAGCACACGUCU | 1.24
7 | GGGUCGAGGGAGCAUAAUCGCGUGGAUAUGGCACGCAAGUUUCUACCGGGCACCGUAAAUGUCCGACUGGAGCCGUUCGGGCGGCUAUAAACAGACCUCAGGCCCGAAGCGUGGCGGCACCUGCCGCCGGUGGUAAAAAAGAUCGGAAGAGCACACGUCU | 1.59
8 | GGGUCGAGGGAUCAUAAUCGCGUGGAUAUGGCACGCAAGUUUCUACCGGGCACCGUAAAUGUCCGACUGGAGCCGUUCGGGCGGCUAUAAACAGACCUCAGGCCCGAAGCGUGGCGGCACCUGCCGCCGGUGGUAAAAAAGAUCGGAAGAGCACACGUCU | 1.33
9 | GGGUCGAGGGAACAUAAUCGCGUGGAUAUGGCACGCAAGUUUCUACCGGGCACCGUAAAUGUCCGACUGGAGCCGUUCGGGCGGCUAUAAACAGACCUCAGGCCCGAAGCGUGGCGGCACCUGCCGCCGGUGGUAAAAAAGAUCGGAAGAGCACACGUCU | 1.09
10 | GGGUCGAGGGUUAAUAAUCGCGUGGAUAUGGCACGCAAGUUUCUACCGGGCACCGUAAAUGUCCGACUGGAGCCGUUCGGGCGGCUAUAAACAGACCUCAGGCCCGAAGCGUGGCGGCACCUGCCGCCGGUGGUAAAAAAGAUCGGAAGAGCACACGUCU | 1.11
11 | GGGUCGAGGGUUGAUAAUCGCGUGGAUAUGGCACGCAAGUUUCUACCGGGCACCGUAAAUGUCCGACUGGAGCCGUUCGGGCGGCUAUAAACAGACCUCAGGCCCGAAGCGUGGCGGCACCUGCCGCCGGUGGUAAAAAAGAUCGGAAGAGCACACGUCU | 1.28
12 | GGGUCGAGGGUUUAUAAUCGCGUGGAUAUGGCACGCAAGUUUCUACCGGGCACCGUAAAUGUCCGACUGGAGCCGUUCGGGCGGCUAUAAACAGACCUCAGGCCCGAAGCGUGGCGGCACCUGCCGCCGGUGGUAAAAAAGAUCGGAAGAGCACACGUCU | 1.26
13 | GGGUCGAGGCGCAAUAAUCGCGUGGAUAUGGCACGCAAGUUUCUACCGGGCACCGUAAAUGUCCGACUGGAGCCGUUCGGGCGGCUAUAAACAGACCUCAGGCCCGAAGCGUGGCGGCACCUGCCGCCGGUGGUAAAAAAGAUCGGAAGAGCACACGUCU | 1.23
14 | GGGUCGAGGCGCUAUAAUCGCGUGGAUAUGGCACGCAAGUUUCUACCGGGCACCGUAAAUGUCCGACUGGAGCCGUUCGGGCGGCUAUAAACAGACCUCAGGCCCGAAGCGUGGCGGCACCUGCCGCCGGUGGUAAAAAAGAUCGGAAGAGCACACGUCU | 1.53
15 | GGGUCGAGGCGCGAUAAUCGCGUGGAUAUGGCACGCAAGUUUCUACCGGGCACCGUAAAUGUCCGACUGGAGCCGUUCGGGCGGCUAUAAACAGACCUCAGGCCCGAAGCGUGGCGGCACCUGCCGCCGGUGGUAAAAAAGAUCGGAAGAGCACACGUCU | 1.07
16 | GGGUCGAGGGACCAUAAUCGCGUGGAUAUGGCACGCAAGUUUCUACCGGGCACCGUAAAUGUCCGACUGGAGCCGUUCGGGCGGCUAUAAACAGACCUCAGGCCCGAAGCGUGGCGGCACCUGCCGCCGGUGGUAAAAAAGAUCGGAAGAGCACACGUCU | 2.88
17 | GGGUCGAGGCGGUAUAAUCGCGUGGAUAUGGCACGCAAGUUUCUACCGGGCACCGUAAAUGUCCGACUGGAGCCGUUCGGGCGGCUAUAAACAGACCUCAGGCCCGAAGCGUGGCGGCACCUGCCGCCGGUGGUAAAAAAGAUCGGAAGAGCACACGUCU | 1.41
18 | GGGUCGAGGGUGCAUAAUCGCGUGGAUAUGGCACGCAAGUUUCUACCGGGCACCGUAAAUGUCCGACUGGAGCCGUUCGGGCGGCUAUAAACAGACCUCAGGCCCGAAGCGUGGCGGCACCUGCCGCCGGUGGUAAAAAAGAUCGGAAGAGCACACGUCU | 1.21

Row | Variant | aptazyme ON/OFF ratio
19 | GGGUCGAGGGUACAUAAUCGCGUGGAUAUGGCACGCAAGUUUCUACCGGGCACCGUAAAUGUCCGACUGGAGCCGUUCGGGCGGCUAUAAACAGACCUCAGGCCCGAAGCGUGGCGGCACCUGCCGCCGGUGGUAAAAAAGAUCGGAAGAGCACACGUCU | 1.17
20 | GGGUCGAGGGUUCAUAAUCGCGUGGAUAUGGCACGCAAGUUUCUACCGGGCACCGUAAAUGUCCGACUGGAGCCGUUCGGGCGGCUAUAAACAGACCUCAGGCCCGAAGCGUGGCGGCACCUGCCGCCGGUGGUAAAAAAGAUCGGAAGAGCACACGUCU | 1.37
21 | GGGUCGAGGGUAUAUAAUCGCGUGGAUAUGGCACGCAAGUUUCUACCGGGCACCGUAAAUGUCCGACUGGAGCCGUUCGGGCGGCUAUAAACAGACCUCAGGCCCGAAGCGUGGCGGCACCUGCCGCCGGUGGUAAAAAAGAUCGGAAGAGCACACGUCU | 1.15
22 | GGGUCGAGGGUAAAUAAUCGCGUGGAUAUGGCACGCAAGUUUCUACCGGGCACCGUAAAUGUCCGACUGGAGCCGUUCGGGCGGCUAUAAACAGACCUCAGGCCCGAAGCGUGGCGGCACCUGCCGCCGGUGGUAAAAAAGAUCGGAAGAGCACACGUCU | 1.04
23 | GGGUCGAGGGUAGAUAAUCGCGUGGAUAUGGCACGCAAGUUUCUACCGGGCACCGUAAAUGUCCGACUGGAGCCGUUCGGGCGGCUAUAAACAGACCUCAGGCCCGAAGCGUGGCGGCACCUGCCGCCGGUGGUAAAAAAGAUCGGAAGAGCACACGUCU | 1.12
24 | GGGUCGAGGGAAGAUAAUCGCGUGGAUAUGGCACGCAAGUUUCUACCGGGCACCGUAAAUGUCCGACUGGAGCCGUUCGGGCGGCUAUAAACAGACCUCAGGCCCGAAGCGUGGCGGCACCUGCCGCCGGUGGUAAAAAAGAUCGGAAGAGCACACGUCU | 1.27
25 | GGGUCGAGGGAAUAUAAUCGCGUGGAUAUGGCACGCAAGUUUCUACCGGGCACCGUAAAUGUCCGACUGGAGCCGUUCGGGCGGCUAUAAACAGACCUCAGGCCCGAAGCGUGGCGGCACCUGCCGCCGGUGGUAAAAAAGAUCGGAAGAGCACACGUCU | 1.34
26 | GGGUCGAGGGAAAAUAAUCGCGUGGAUAUGGCACGCAAGUUUCUACCGGGCACCGUAAAUGUCCGACUGGAGCCGUUCGGGCGGCUAUAAACAGACCUCAGGCCCGAAGCGUGGCGGCACCUGCCGCCGGUGGUAAAAAAGAUCGGAAGAGCACACGUCU | 1.55
27 | GGGUCGAGGGAUGAUAAUCGCGUGGAUAUGGCACGCAAGUUUCUACCGGGCACCGUAAAUGUCCGACUGGAGCCGUUCGGGCGGCUAUAAACAGACCUCAGGCCCGAAGCGUGGCGGCACCUGCCGCCGGUGGUAAAAAAGAUCGGAAGAGCACACGUCU | 0.975
28 | GGGUCGAGGGAUAAUAAUCGCGUGGAUAUGGCACGCAAGUUUCUACCGGGCACCGUAAAUGUCCGACUGGAGCCGUUCGGGCGGCUAUAAACAGACCUCAGGCCCGAAGCGUGGCGGCACCUGCCGCCGGUGGUAAAAAAGAUCGGAAGAGCACACGUCU | 1.21
29 | GGGUCGAGGCGUGAUAAUCGCGUGGAUAUGGCACGCAAGUUUCUACCGGGCACCGUAAAUGUCCGACUGGAGCCGUUCGGGCGGCUAUAAACAGACCUCAGGCCCGAAGCGUGGCGGCACCUGCCGCCGGUGGUAAAAAAGAUCGGAAGAGCACACGUCU | 1.44
30 | GGGUCGAGGCGUAAUAAUCGCGUGGAUAUGGCACGCAAGUUUCUACCGGGCACCGUAAAUGUCCGACUGGAGCCGUUCGGGCGGCUAUAAACAGACCUCAGGCCCGAAGCGUGGCGGCACCUGCCGCCGGUGGUAAAAAAGAUCGGAAGAGCACACGUCU | 1.26
31 | GGGUCGAGGCGUUAUAAUCGCGUGGAUAUGGCACGCAAGUUUCUACCGGGCACCGUAAAUGUCCGACUGGAGCCGUUCGGGCGGCUAUAAACAGACCUCAGGCCCGAAGCGUGGCGGCACCUGCCGCCGGUGGUAAAAAAGAUCGGAAGAGCACACGUCU | 1.31
32 | GGGUCGAGGGUCCAUAAUCGCGUGGAUAUGGCACGCAAGUUUCUACCGGGCACCGUAAAUGUCCGACUGGAGCCGUUCGGGCGGCUAUAAACAGACCUCAGGCCCGAAGCGUGGCGGCACCUGCCGCCGGUGGUAAAAAAGAUCGGAAGAGCACACGUCU | 1.25
33 | GGGUCGAGGGUGUAUAAUCGCGUGGAUAUGGCACGCAAGUUUCUACCGGGCACCGUAAAUGUCCGACUGGAGCCGUUCGGGCGGCUAUAAACAGACCUCAGGCCCGAAGCGUGGCGGCACCUGCCGCCGGUGGUAAAAAAGAUCGGAAGAGCACACGUCU | 1.21
34 | GGGUCGAGGGUGAAUAAUCGCGUGGAUAUGGCACGCAAGUUUCUACCGGGCACCGUAAAUGUCCGACUGGAGCCGUUCGGGCGGCUAUAAACAGACCUCAGGCCCGAAGCGUGGCGGCACCUGCCGCCGGUGGUAAAAAAGAUCGGAAGAGCACACGUCU | 1.26
35 | GGGUCGAGGGUGGAUAAUCGCGUGGAUAUGGCACGCAAGUUUCUACCGGGCACCGUAAAUGUCCGACUGGAGCCGUUCGGGCGGCUAUAAACAGACCUCAGGCCCGAAGCGUGGCGGCACCUGCCGCCGGUGGUAAAAAAGAUCGGAAGAGCACACGUCU | 1.3
36 | GGGUCGAGGCGUCAUAAUCGCGUGGAUAUGGCACGCAAGUUUCUACCGGGCACCGUAAAUGUCCGACUGGAGCCGUUCGGGCGGCUAUAAACAGACCUCAGGCCCGAAGCGUGGCGGCACCUGCCGCCGGUGGUAAAAAAGAUCGGAAGAGCACACGUCU | 1.29
